In patent publication US20260193348A1 (ANTENGENE BIOLOGICS, published 2026):
Changes are numbered by the printed parent chain. Names may count otherwise. Values belong to the binder of their own block, whether it stands above or below them.

Assays:
GPRC5D on MM.1S cells [1] = target: T1, GPRC5D on MM.1S cells (human, UniProt Q9NZD1 1-345); experiment: FACS on MM.1S cells
T1 construct: whole, on cells; MM.1S is called a GPRC5D positive expressed cell line and human multiple myeloma cells; also called G-protein coupled receptor family C group 5 member D
T1 sequence (Q9NZD1 whole entry): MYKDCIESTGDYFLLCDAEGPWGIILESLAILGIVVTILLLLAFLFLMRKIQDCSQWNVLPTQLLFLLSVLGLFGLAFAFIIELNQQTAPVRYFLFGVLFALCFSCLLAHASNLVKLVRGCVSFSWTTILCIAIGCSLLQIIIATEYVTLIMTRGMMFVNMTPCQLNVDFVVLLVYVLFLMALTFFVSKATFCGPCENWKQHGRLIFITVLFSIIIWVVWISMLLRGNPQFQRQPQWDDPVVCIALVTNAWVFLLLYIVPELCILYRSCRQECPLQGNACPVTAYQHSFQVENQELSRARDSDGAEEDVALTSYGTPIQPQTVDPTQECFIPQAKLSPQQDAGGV
Description: The binding affinities of the generated humanized Fab-scFv-Fab bispecific antibodies were determined by FACS analysis. […] (a) Jurkat cells were washed by Staining Buffer (PBS+1% BSA) in round bottom 96-well plate. [0833] (b) Antibody dilutions and cells were added to each well, incubated at 4 degrees for 1 hour. [0834] (c) Cells were spined down at 300 g for 3 minutes, and the supernatants were discarded. [0835] (d) Cells were washed with Staining Buffer. […] (e) Step (d) was repeated and the cells were incubated for 0.5 hours at 4 degrees with secondary antibody in Staining Buffer. [0837] (f) After incubation, step (d)-(e) were repeated. […] (g) Staining Buffer was added and fluorescence signals were recorded by flow cytometry.
The binding affinities of the generated humanized Fab-scFv-Fab bispecific antibodies were determined by FACS analysis. The ATG-Bis-40E9 was used as positive control and hIgG1 isotype was used as negative control. The protocol for FACS analysis is identical to that described in Example 3.2, except that MM.1S cells were used in this example.

GPRC5D on MM.1S cells [2] = target: T1, GPRC5D on MM.1S cells; experiment: cell-based or functional assay
GPRC5D on MM.1S cells [3] = target: T1, GPRC5D on MM.1S cells; experiment: cell-based or functional assay; remark: listed apart in the source

B1: Bis-108+147-R35S.L (bispecific antibody)
heavy 1: not shown
heavy 2: EVQLVQSGAEVKKPGASVKVSCKASGYTFTSYVIHWVRQAPGQGLEWMGYFNPYNDGTKYNEEFKGRVTLTSDKSTSTAYMELRSLRSDDTAVYYCARGGVRRYFDVWGQGTTVTVSSASTKGPSVFPLAPSSKSTSGGTAALGCLVKDYFPEPVTVSWNSGALTSGVHTFPAVLQSSGLYSLSSVVTVPSSSLGTQTYICNVNHKPSNTKVDKKVEPKSCGGGGSGGGGSEVQLVQSGAEVKKPGSSVKVSCKASGYTFTSYWMHWVRQAPGQCLEWMGNINPSSGATNYNEKFKSRVTLTVDKSTSTAYMELSSLRSEDTAVYYCARDRSSQYYFDYWGQGTTVTVSSGGGGSGGGGSGGGGSGGGGSDIVMTQSPDSLAVSLGERATINCKSSQSLLNSRSSKNYLAWYQQKPGQPPKLLIYWASTRESGVPDRFSGSGSGTDFTLTISSLQAEDVAVYYCTQSYTLRTFGCGTKVEIKGGGGSGGGGSDKTHTCPPCPAPEAAGGPSVFLFPPKPKDTLMISRTPEVTCVVVDVSHEDPEVKFNWYVDGVEVHNAKTKPREEQYNSTYRVVSVLTVLHQDWLNGKEYKCKVSNKALPAPIEKTISKAKGQPREPQVCTLPPSREEMTKNQVSLSCAVKGFYPSDIAVEWESNGQPENNYKTTPPVLDSDGSFFLVSKLTVDKSRWQQGNVFSCSVMHEALHNHYTQKSLSLSPGK
light: DIQMTQSPSSLSASVGDRVTITCRASQDIGSNLNWLQQKPGKAIKRLIYATFGLDSGVPSRFSGSRSGTDFTLTISSLQPEDFATYYCQQYASFPYTFGGGTKVEIKRTVAAPSVFIFPPSDEQLKSGTASVVCLLNNFYPREAKVQWKVDNALQSGNSQESVTEQDSKDSTYSLSSTLTLSKADYEKHKVYACEVTHQGLSSPVTKSFNRGEC
notes: Fab-scFv-Fab format
EC50 (GPRC5D on MM.1S cells [1]): 1.53 nM
Top signal (GPRC5D on MM.1S cells [1]): 1860 MFI
IC50 of T-cell dependent cytotoxicity on MM.1S cells (GPRC5D on MM.1S cells [2]): 1.64 nM
Top (%) target cell killing, MM.1S cells (GPRC5D on MM.1S cells [2]): 102%
EC50, Jurkat-NFAT-Luciferase assay in the presence of MM.1S cells (GPRC5D on MM.1S cells [3]): 1.87 nM
Top RLU, Jurkat-NFAT-Luciferase assay in the presence of MM.1S cells (GPRC5D on MM.1S cells [3]): 344 RLU

B2: Bis-108+147-R33A.L (bispecific antibody)
heavy 1: not shown
heavy 2: B1 heavy 2 with R403A, S405R
light: B1 light
notes: Fab-scFv-Fab format
EC50 (GPRC5D on MM.1S cells [1]): 1.87 nM
Top signal (GPRC5D on MM.1S cells [1]): 1650 MFI
IC50 of T-cell dependent cytotoxicity on MM.1S cells (GPRC5D on MM.1S cells [2]): 1.51 nM
Top (%) target cell killing, MM.1S cells (GPRC5D on MM.1S cells [2]): 45.1%
EC50, Jurkat-NFAT-Luciferase assay in the presence of MM.1S cells (GPRC5D on MM.1S cells [3]): 2.48 nM
Top RLU, Jurkat-NFAT-Luciferase assay in the presence of MM.1S cells (GPRC5D on MM.1S cells [3]): 287 RLU

B8: Bis-108+147-N31Y.L (bispecific antibody)
heavy 1: not shown
heavy 2: B1 heavy 2 with N401Y, S405R
light: B1 light
notes: Fab-scFv-Fab format
EC50 (GPRC5D on MM.1S cells [1]): 1.93 nM
Top signal (GPRC5D on MM.1S cells [1]): 1930 MFI
Top (%) target cell killing, MM.1S cells (GPRC5D on MM.1S cells [2]): 122%
EC50, Jurkat-NFAT-Luciferase assay in the presence of MM.1S cells (GPRC5D on MM.1S cells [3]): 0.27 nM
Top RLU, Jurkat-NFAT-Luciferase assay in the presence of MM.1S cells (GPRC5D on MM.1S cells [3]): 11.8 RLU

More lines, main results first:

EC50 (GPRC5D on MM.1S cells [1]): 1.5 nM
Top signal (GPRC5D on MM.1S cells [1]): 2030 MFI
EC50, Jurkat-NFAT-Luciferase assay in the presence of MM.1S cells (GPRC5D on MM.1S cells [3]): 0.25 nM
Top RLU, Jurkat-NFAT-Luciferase assay in the presence of MM.1S cells (GPRC5D on MM.1S cells [3]): 334 RLU
B3: Bis-108+147-S31R.H (bispecific antibody)
heavy 1: not shown
heavy 2: B1 heavy 2 with S262R, S405R
light: B1 light
notes: Fab-scFv-Fab format
IC50 of T-cell dependent cytotoxicity on MM.1S cells (GPRC5D on MM.1S cells [2]): 4.43 nM
Top (%) target cell killing, MM.1S cells (GPRC5D on MM.1S cells [2]): 159%

EC50 (GPRC5D on MM.1S cells [1]): 2.15 nM
Top signal (GPRC5D on MM.1S cells [1]): 1900 MFI
EC50, Jurkat-NFAT-Luciferase assay in the presence of MM.1S cells (GPRC5D on MM.1S cells [3]): 0.15 nM
Top RLU, Jurkat-NFAT-Luciferase assay in the presence of MM.1S cells (GPRC5D on MM.1S cells [3]): 424 RLU
B4: Bis-108+147-N37K.L (bispecific antibody)
heavy 1: not shown
heavy 2: B1 heavy 2 with S405R, N407K
light: B1 light
notes: Fab-scFv-Fab format
IC50 of T-cell dependent cytotoxicity on MM.1S cells (GPRC5D on MM.1S cells [2]): 1490 nM

EC50 (GPRC5D on MM.1S cells [1]): 1.76 nM
Top signal (GPRC5D on MM.1S cells [1]): 2050 MFI
EC50, Jurkat-NFAT-Luciferase assay in the presence of MM.1S cells (GPRC5D on MM.1S cells [3]): 0.32 nM
Top RLU, Jurkat-NFAT-Luciferase assay in the presence of MM.1S cells (GPRC5D on MM.1S cells [3]): 406 RLU
B5: Bis-108+147-S32R.L (bispecific antibody)
heavy 1: not shown
heavy 2: B1 heavy 2 with S402R, S405R
light: B1 light
notes: Fab-scFv-Fab format
IC50 of T-cell dependent cytotoxicity on MM.1S cells (GPRC5D on MM.1S cells [2]): 0.54 nM
Top (%) target cell killing, MM.1S cells (GPRC5D on MM.1S cells [2]): 99%

EC50 (GPRC5D on MM.1S cells [1]): 1.56 nM
Top signal (GPRC5D on MM.1S cells [1]): 1840 MFI
EC50, Jurkat-NFAT-Luciferase assay in the presence of MM.1S cells (GPRC5D on MM.1S cells [3]): 0.76 nM
Top RLU, Jurkat-NFAT-Luciferase assay in the presence of MM.1S cells (GPRC5D on MM.1S cells [3]): 326 RLU
B6: Bis-108+147-K36R.L (bispecific antibody)
heavy 1: not shown
heavy 2: B1 heavy 2 with S405R, K406R
light: B1 light
notes: Fab-scFv-Fab format
IC50 of T-cell dependent cytotoxicity on MM.1S cells (GPRC5D on MM.1S cells [2]): 1940 nM

EC50 (GPRC5D on MM.1S cells [1]): 1.58 nM
Top signal (GPRC5D on MM.1S cells [1]): 1740 MFI
EC50, Jurkat-NFAT-Luciferase assay in the presence of MM.1S cells (GPRC5D on MM.1S cells [3]): 0.47 nM
Top RLU, Jurkat-NFAT-Luciferase assay in the presence of MM.1S cells (GPRC5D on MM.1S cells [3]): 408 RLU
B7: Bis-108+147-R35K.L (bispecific antibody)
heavy 1: not shown
heavy 2: B1 heavy 2 with S405K
light: B1 light
notes: Fab-scFv-Fab format
IC50 of T-cell dependent cytotoxicity on MM.1S cells (GPRC5D on MM.1S cells [2]): 0.61 nM
Top (%) target cell killing, MM.1S cells (GPRC5D on MM.1S cells [2]): 99.9%
